Where two headings read alike, the source gives them in different places.

Holding throughout (assay): BLI heatmap
Test [1] concerns the target T1, LA peptide LAKLDEESILKQK (XAKLDEESILKQK, X = L).
T1 construct: Immobilized on the biolayer interferometry sensor
T1 peptide: LAKLDEESILKQK

Test [2] deals with T2, VA peptide VAKLDEESILKQK (XAKLDEESILKQK, X = V).
T2 construct: Immobilized on the biolayer interferometry sensor
T2 peptide: VAKLDEESILKQK

Test [3] addresses T3, IA peptide IAKLDEESILKQK (XAKLDEESILKQK, X = I).
T3 construct: Immobilized on the biolayer interferometry sensor
T3 peptide: IAKLDEESILKQK

Test [4] addresses T4, F peptide FAKLDEESILKQK (XAKLDEESILKQK, X = F).
T4 construct: Immobilized on the biolayer interferometry sensor
T4 peptide: FAKLDEESILKQK

Test [5] concerns the target T3, IA peptide IAKLDEESILKQK ….
Test [6] has as its target T4, F peptide FAKLDEESILKQK (XAKLDEESILKQK, …).

B1: PS550 (other)
chain: MPTFTEPEVVNDTRILPPYHVILLNDDDHTYEYVIHMLQTLFGHPQERGFQLAVEVDKKGKAIVFTTSKEHAEFKRDQIHAFGADPLSSKNCKGSMSAVIEPSF
On to B1, for which the binding result in test [1] is “binds”.

B2: PS434 (other)
chain: MSRLPWKQEAKFAATVIIDFPDATLEAPTIEKKEATEQQIEMPWNVVVHNDPVNLMSYVTMVFQRVFGYPRERAEKHMLEVHHSGRSILWSGLRERAELYVQQLHGYLLLATIEKTV
For the molecule B2, the values for the binding result in test [2], in test [3] and in test [4] were “no binding”, “no binding” and “binds”, respectively.

B3: PS418 (other)
chain: MSDHNIDHDTSVAVHLDVVVREPPMYRVVLLNDDFTPMEFVVELLMHFFRKTAEQATQIMLNIHHEGVGVCGTYPREIAETKVAQVHQHARTNGHPLKCRMEPS
On to B3, for which the binding result is on record as “no binding” in test [2], “no binding” in test [3] and “binds” in test [4].

B4: PS556 (other)
chain: MGDSNTSVAEPGEVTVVTTKPAPKKAKPKRQPKYHVVLWNDDDHTYEYVILMMHELFGHPVEKGFQIAKTVDADGRAICLTTTKEHAELKRDQIHAYGKDELIARCRGSMSSTIEPEC
On to B4, for which the binding result is “binds” in test [5], “binds” in test [1] and “no binding” in test [6].

B5: PS409 (other)
chain: MPARLTDIEGEPNTDPVEDVLLADPELKKPQMYAVVMYNDDYTPMEFVVDVLQNHFKHTLDSAISIMLAIHQQGKGIAGIYPKDIAETKAQTVNRKARQAGYPLLSQIEPQG
On to B5, for which the figures for the binding result in test [2], in test [3] and in test [4] were “no binding”, “no binding” and “binds”, respectively.

B6: PS565 (other)
chain: MSEFDHEHSGDTSVADPIVTTKTAPKPQKHAENETETRRQPPYNVIILNDEEHTFDYVIELLCKVFRHSLATAQELTWRIHLTGRAVVLTTHKELAELKRDQVLAYGPDPRMSVSKGPLDCFIEPAPGG
Take B6: the binding result in test [5], in test [1] and in test [6] was “binds” throughout.

B7: PS548 (other)
chain: MSDTITLPEEKTDVRTKRQPPYHVILLNDDDHTYQYVIYMLQTLFGHPPETGFKMAQEVDKTGRVIVDTTSLERAELKRDQIHAFGPDPYIERCKGSMSAMIEPSE
In the case of B7, the binding result in test [5] was “binds”; in test [1], “binds”; in test [6], “no binding”.

B8: PS395 (other)
chain: MTVSQSKTQGAPAAQSATELEYEGLWRVVVLNDPVNLMSYVVLVFKKVFGFDETTARKHMLEVHEQGRSVVWSGMREKAEAYAFTLQQWHLTTVLEQDEVR
For B8, the binding result in test [2] is given as “no binding”; in test [3], “no binding”; in test [4], “binds”.

B9: PS578 (other)
chain: MSGTVVESKPRNSTQLAPRWKVIVHDDPVTTFDFVLGVLRRVFAKPPGEARRITREAHDTGSALVDVLALEQAEFRRDQAHSLARAEGFPLTLTLEPAD
With B9, the binding result in test [1] and in test [6] was “binds” throughout.

B10: PS412 (other)
chain: MATKREGSTLLEPTAAKVKPPPLYKVLLLNDDYTPMEFVVLVLKKFFGIDQERATQIMLKVHTEGVGVCGVYPRDIAHTKVEQVVDFARQHQHPLQCTMEES
With B10, the results for the binding result in test [2], in test [3] and in test [4] were “no binding”, “no binding” and “binds”, respectively.

B11: PS546 (other)
chain: MSDTITLPGRPEVERDERTRRQPPYNVILHNDDDHTFEYVIVMLNQLFGYPPEKGYEMAKEVHLNGRVIVLTTSKEHAELKRDQIHAFGPDPFSSKDCKGSMSASIEPAY
As to B11, the binding result is listed as “binds” in test [5], “binds” in test [1] and “no binding” in test [6].

B12: PS422 (other)
chain: MTQIKPQTIPDTDVISQTQSDWQMPDLYAVIMHNDDYTTMDFVVFLLNAVFDKPIEQAYQLMMQIHQTGRAVVAILPYEIAEMKVDEATSLAEQEQFPLFISIEQA
Take B12: the values for the binding result in test [2], in test [3] and in test [4] were “no binding”, “no binding” and “binds”, respectively.

B13: PS419 (other)
chain: MEKEQSLCKEKTHVELSEPKHYKVVFHNDDFTTMDFVVKVLQLVFFKSQLQAEDLTMKIHLEGSATAGIYSYDIAQSKAQKTTQMAREEGFPLRLTVEPEDN
Turning to B13, the binding result in test [2] is on record as “no binding”; in test [3] it was “no binding”; in test [4], “binds”.

B14: PS549 (other)
chain: MSESITTLPKKSRRLKEEEEQKTKRQPPYNVILLNDDDHTFEYVIFMLQKLFGHPPERGMQMAKEVHTTGRVIVMTTALELAELKRDQIHAFGPDPLIDRCKGSMSATIEPAPI
As for B14, the binding result in test [5] was “binds”; in test [1] it was “binds”; in test [6], “no binding”.

B15: PS433 (other)
chain: MMSSLKECSIQALPSLDEKTKTEEDLSVPWKVIVLNDPVNLMSYVVMVFRKVFGYNENKATKHMMEVHQLGKSVLWTGQREEAECYAYQLQRWRLQTILEKDD
Turning to B15, the binding result is on record as “no binding” in test [2], “no binding” in test [3] and “binds” in test [4].

B16: PS407 (other)
chain: MPSNKRQMCLSDIKNSFNESGIVDWHISPRLANEPSEEGDSDLAVQTVPPELKRPPLYAVVLLNDDYTPMEFVIEILQQYFAMNLDQATQVMLTVHYEGKGVAGVYPRDIAETKANQVNNYARSQGHPLLCQIEPKD
On to B16, for which the binding result is given as “no binding” in test [2], “no binding” in test [3] and “binds” in test [4].

B17: PS566 (other)
chain: MSSPSSLDDVQVSTSRAKPANETRTRKQPPYAVIVENDDHHTFLYVIEALMKVCGHAPEKGFVLAQQIHTQGKAMVWSGTLELAELKRDQLRGFGPDNYAPRPVTFPLGVTIEPLP
For B17, the binding result in test [5], in test [1] and in test [6] was “binds” in each case.

B18: PS408 (other)
chain: MTDPPSKGREDVDLATRTKPKTQRPPLYKVLLLNDDFTPMEFVVHILERLFGMTHAQAIEIMLTVHRKGVAVVGVFSHEIAETKVAQVMELARRQQHPLQCTMEKE
Take B18: the binding result in test [2] is on record as “no binding”; in test [3] it was “no binding”; in test [4], “binds”.

B19: PS560 (other)
chain: MTETITTPAERTQTQAEPRSDRAWLWNVVLLDDDEHTYEYVIRMLHTLFGMPVERAFRLAEEVDARGRAVVLTTHKEHAELKRDQVHAFGKDALIASCAGSMSAVLEPAECGSDDED
For B19, the binding result is on record as “binds” in test [5], “binds” in test [1] and “no binding” in test [6].

B20: PS425 (other)
chain: MTHYFSNILRDQESPKINPKELEQIDVLEEKEHQIILYNDDVNTFEHVIDCLVKICEHNYLQAEQCAYIVHHSGKCSVKTGSLDELVPKCNALLEEGLSAEVV
In the case of B20, the binding result in test [2] was “no binding”; in test [3] it was “no binding”; in test [4] it was “binds”.

B21: PS394 (other)
chain: MAERRDTGDDEGTGLGIATKTRSKTKKPTPYRVLMLNDDYTPMEFVVLCLQRFFRMNMEEATRVMLHVHQKGVGVCGVFSYEVAETKVGQVIDFARANQHPLQCTLEKA
B21: the binding result in test [2] was “no binding”; in test [3] it was “no binding”; in test [4], “binds”.

B22: PS393 (other)
chain: MSDEDGEDGDENAVGIATRTRTRTKKPTPYRVLLLNDDYTPMEFVVLVLQRFFRMSIEDATRVMLQVHQKGVGVCGVFTYEVAETKVSQVIDFARQNQHPLQCTLEKA
As for B22, the binding result in test [2] is listed as “no binding”; in test [3], “no binding”; in test [4], “binds”.

B23: PS575 (other)
chain: MASTQTPDLNEITEESTKSTGGPWRVVLWDDNEHTYEYVIEMLMEICTMTVEKAFLHAVQVDQEKRTVVFSGEFEHAEHVQERILTYGADPRMSNSKGSMSATLEK
As to B23, the binding result is “binds” in test [5], “binds” in test [1] and “no binding” in test [6].

B24: PS570 (other)
chain: MTGAGASQPSILEETEVRPRLSDGPWKVVLWDDDFHTYEYVIEMLMDVCQMPWEKAFQHAVEVDTRKKTIVFSGELEHAEFVHERILNYGPDPRMGSSKGSMTATLEQ
With B24, the figures for the binding result in test [5], in test [1] and in test [6] were “binds”, “binds” and “no binding”, respectively.

The values are drawn from patent publication US20210364527A1 (QUANTUM SI, published 2021).
